Here are results for one molecule from patent publication US20190269666A1 (Eli Lilly, published 2019).

For test [1], the target named is T1, biotinylated PD-L1-Fc fusion protein (Homo sapiens (Human), UniProt Q9NZQ7 19-238, limits assumed, biotinylated (sites not given)).
T1 construct: not shown: Fc part
In words: blocking ELISA: antibody premixed with biotinylated PD-L1-Fc, plate coated with B7-1-Fc (1 ug/ml, R&D Systems).

Test [2] deals with T1, biotinylated PD-L1-Fc fusion protein. In words: blocking ELISA: antibody premixed with biotinylated PD-L1-Fc (100 ng/well), plate coated with PD-1-Fc (1 ug/ml). (In general: ELISA stands for enzyme-linked immunosorbent assay.)
Test [3] deals with T2, human PD-L1-Fc fusion protein (human, UniProt Q9NZQ7 19-239).
T2 construct: treated as one molecule; also called soluble human PD-L1-Fc fusion protein; human PD-L1-Fc (R&D Systems); not shown: Fc part
T2 sequence (Q9NZQ7 19-239 limits assumed): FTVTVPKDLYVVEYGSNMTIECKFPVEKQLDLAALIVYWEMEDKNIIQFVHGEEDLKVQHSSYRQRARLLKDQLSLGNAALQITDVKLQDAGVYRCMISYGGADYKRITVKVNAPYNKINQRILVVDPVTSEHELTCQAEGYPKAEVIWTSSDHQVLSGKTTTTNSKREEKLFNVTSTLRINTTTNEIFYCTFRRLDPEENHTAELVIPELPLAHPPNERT
The test can be described thus: ELISA, plate coated with human PD-L1-Fc (R&D Systems), anti-human IgG F(ab')2-HRP detection. The method, then: Wells are blocked for 2 hours with blocking buffer (PBS containing 5% nonfat dry milk). Wells are washed three times with PBS containing 0.1% TWEEN®-20. […] After washing, the plate is incubated with 100 μL of goat anti-human IgG F(ab′)2-HRP conjugate (Jackson Immuno Research) at room temperature for 1 hour. The plates are washed and then incubated with 100 μL of 3,3′, 5,5′-tetra-methylbenzidine. The absorbance at 450 nm is read on a microplate reader. The half maximal effective concentration (EC₅₀) is calculated using GraphPad Prism 6 software.

Test [4] addresses T2, human PD-L1-Fc fusion protein. In words: SPR (Biacore T200), antibody immobilized, PD-L1-Fc as analyte, 37 C, 1:1 model. The method, then: (§1) Immobilization of antibodies of the present invention as ligand on to sensor chip surface is performed at 25° C. […] The analysis is performed at 37° C. The contact time for each sample is 180 seconds at 30 μL/minute. The dissociation time was 240-1500 seconds. The immobilized surface is regenerated for 18 seconds with 0.95 M NaCl/25 mM NaOH at 30 μL/minute, and then stabilized for 30 seconds. Binding kinetics are analyzed using the Biacore T200 Evaluation software (Version 3.0). Data are referenced to a blank flow cell, and the data are fit to a 1:1 binding model.
(SPR reads the build-up and loss of mass on a sensor chip optically.)

The target in test [5] is T3, cynomolgus monkey PD-L1-Fc fusion protein (cynomolgus monkey).
T3 construct: Soluble analyte in SPR; also called Cyno PD-L1
The test is described as above. As for the experimental part: as §1

In test [6] the target is T4, cell surface PD-L1 on MDA-MB231 cells (human, UniProt Q9NZQ7 19-290).
T4 construct: Endogenous PD-L1 of the human cell line; also called cell surface expressed human PD-L1; MDA-MB 231 cells (PD-L1-positive human breast adenocarcinoma cell line)
T4 sequence (Q9NZQ7 19-290 limits assumed): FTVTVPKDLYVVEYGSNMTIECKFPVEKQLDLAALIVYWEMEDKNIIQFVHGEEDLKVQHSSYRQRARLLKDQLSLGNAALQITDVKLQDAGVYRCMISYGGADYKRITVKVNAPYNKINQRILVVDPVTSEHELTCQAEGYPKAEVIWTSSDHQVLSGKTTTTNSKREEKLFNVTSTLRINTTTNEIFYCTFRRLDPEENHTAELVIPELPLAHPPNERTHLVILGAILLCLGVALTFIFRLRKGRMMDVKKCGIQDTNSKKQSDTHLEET
The test can be described thus: flow cytometry on MDA-MB231 cells, biotinylated antibody, streptavidin-PE detection. As for the experimental part:
Plate are centrifuged at 1200 rpm for 5 minutes and supernatant removed. 100 μL of antibody-biotin (serially diluted by 1:4 starting from 10 μg/ml) is added. A total of 6 serial dilutions are evaluated. After incubation at 4° C. for 30 minutes, cells are washed twice with DPBS. 100 μL of detection buffer containing 5 μL streptavidin-PE is added. After incubation at 4° C. for 30 more minutes, plate is centrifuged and washed twice with DPBS. Cells are re-suspended in 200 μL DPBS for FACS analysis.

T1 sequence (Q9NZQ7 19-238 limits assumed): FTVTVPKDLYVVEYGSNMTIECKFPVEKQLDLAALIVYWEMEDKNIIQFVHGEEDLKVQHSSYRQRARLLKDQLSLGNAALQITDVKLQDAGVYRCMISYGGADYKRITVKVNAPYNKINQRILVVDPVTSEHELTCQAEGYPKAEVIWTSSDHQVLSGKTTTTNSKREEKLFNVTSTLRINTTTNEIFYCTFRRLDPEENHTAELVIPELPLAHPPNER

B1: LY3300054 (antibody, human IgG1, lambda, V domains shown)
VH: QVQLVQSGAEVKKPGSSVKVSCKASGGTFSSYAISWVRQAPGQGLEWMGGIIPIFGTANYAQKFQGRVTITADKSTSTAYMELSSLRSEDTAVYYCARSPDYSPYYYYGMDVWGQGTTVTVSS
VL: QSVLTQPPSASGTPGQRVTISCSGSSSNIGSNTVNWYQQLPGTAPKLLIYGNSNRPSGVPDRFSGSKSGTSASLAISGLQSEDEADYYCQSYDSSLSGSVFGGGIKLTVLG
notes: Biotinylated antibody was used in the flow cytometry assay; also called anti-PD-L1 antibody
Regarding B1, the IC50 in test [1] came to 2.4 nM; in test [2] it was 0.95 nM. Moreover, the EC50 in test [3] worked out at 0.11 nM; in test [6], 0.14 nM. Besides, the Kd in test [4] is 0.082 nM; in test [5], 0.122 nM. Besides, the values for the koff in test [4] and in test [5] were 0.000114 s⁻¹ and 0.000184 s⁻¹, respectively. Besides, the kon was determined as 1.4e+06 M⁻¹ s⁻¹ in test [4] and 1.51e+06 M⁻¹ s⁻¹ in test [5].

For orientation: IC50 means the concentration at which inhibition is half-maximal. In general, EC50 refers to the midpoint of the concentration-response curve. Usually Kd stands for the concentration at which binding is half-saturated. Usually koff stands for the first-order rate constant of dissociation. For orientation: kon means the rate constant with which the complex forms.
